# Measurements published in patent US20240108738A1 (Bicycle, published 2024).
# Numbered stars: 1 amine (or outer) side, 2 acyl side, 3 side chain; on linkers, the order of the positions; unused ones are H or OH. Bridge positions count the residues as written; N and C are the ends. Square brackets hold non-standard residues; d marks the D form. Primed or numbered codes have the meaning given here. Ends that are not written are not given here. * marks the point of attachment. TBMT(3) = 2,4,6-tris(bromomethyl)-s-triazine scaffold, C(c1nc(C[*:2])nc(C[*:3])n1)[*:1]; TBMT = 2,4,6-tris(bromomethyl)-s-triazine, C(c1nc(C[*:2])nc(C[*:3])n1)[*:1]; TBMT″ = 2,4,6-tris(bromomethyl)-s-triazine, scaffold on three Cys; TATA = O=C(CC[*:1])N1CN(C(=O)CC[*:2])CN(C(=O)CC[*:3])C1; hPhe = N[C@@H](CCc1ccccc1)C(=O)O; Pent4ynoyl = C#CCCC(=O)*
# B1: BCY15914 (peptide)
# peptide: ACRWSVEDPCGAWCAK-NH2
# modifications: linker 2-10-14 via TBMT (inferred); not fully specified (residue 16); also: homodimer via shared N-(amine-PEG2)-N-bis(PEG3-azide) linker
# notes: homodimer of BCY13883; scaffold TBMT; also called CD16a fluorescent dimer
# B2: BCY15916 (peptide)
# peptide: ACVGLEELGPCSDLCAK-NH2
# modifications: linker 2-11-15 via TBMT (inferred); not fully specified (residue 17); also: homodimer via shared N-(amine-PEG2)-N-bis(PEG3-azide) linker
# notes: homodimer of BCY13886; scaffold TBMT; also called CD16a fluorescent dimer
# B3: BCY15915 (peptide)
# peptide: ACPPTVYCHPLDCAK-NH2
# modifications: linker 2-8-13 via TATA (inferred); not fully specified (residue 15); also: homodimer via shared N-(amine-PEG2)-N-bis(PEG3-azide) linker
# notes: homodimer of BCY15685; scaffold TATA; also called CD16a fluorescent dimer
# B4: BCY15922 (peptide)
# peptide: ACNLQAPCMQTGKVCAK-NH2
# modifications: linker 2-8-15 via TATA (inferred); not fully specified (residue 17); also: AF488 on linker
# notes: homodimer of BCY15687; scaffold TATA
# B5: BCY15921 (peptide)
# peptide: ACDLTTHNCQWGICAK-NH2
# modifications: linker 2-9-14 via TATA; not fully specified (residue 16); also: homodimer via shared N-(amine-PEG2)-N-bis(PEG3-azide) linker
# notes: scaffold TATA
# B6: BCY21694 (peptide)
# peptide: Ac-CRWH[hPhe]SEPCGAWC-NH2
# modifications: linker 1-9-13 via TBMT(3)
# SMILES: CC(=O)N[C@H]1CSCc2nc3nc(n2)CSC[C@H](NC(=O)[C@@H]2CCCN2C(=O)[C@H](CCC(=O)O)NC(=O)[C@H](CO)NC(=O)[C@H](CCc2ccccc2)NC(=O)[C@H](Cc2c[nH]cn2)NC(=O)[C@H](Cc2c[nH]c4ccccc24)NC(=O)[C@H](CCCNC(=N)N)NC1=O)C(=O)NCC(=O)N[C@@H](C)C(=O)N[C@@H](Cc1c[nH]c2ccccc12)C(=O)N[C@H](C(N)=O)CSC3
# notes: scaffold TBMT
# Molecular target: T1, human CD16a F176 variant, biotinylated (human, UniProt P08637 17-208, C-terminally biotinylated)
# T1 construct: supplier is told for the AlphaScreen assay only; also called F Variant; FcγRIIIA F variant
# Experiment: AlphaScreen competition vs mouse IgG2a
# Procedure: (§1) Bicyclic peptides were evaluated with a CD16a-IgG competition assay using Perkin Elmer AlphaScreen™ technology. Acceptor beads (Perkin Elmer 6762003) were chemically conjugated via a reductive amination reaction with a mouse IgG2a mAb to link via the free amines, based the manufacturer's protocol. Briefly, beads were centrifuged and resuspended in a 130 mM sodium phosphate buffered solution pH 8.0 containing 0.2 mg mAb, 20 mM NaBH₃CN (Sigma 296945) and 0.06% P20 surfactant (Cytiva Life Sciences, BR-1000-54) and incubated on a rotary shaker at 44° C. for 22 hours. Unbound sites were then blocked by adding a final concentration of 3 mg/ml carboxymethoxylamine (CMO) (Sigma C13408), before continuing shaking incubation for a further 1 hour. Beads were washed by centrifugation and resuspension in 100 mM TRIS-HCl pH 8.0 (Sigma T2694), before a final resuspension in PBS (GIBCO 14190)+0.05% Proclin-300 (Sigma 48912-U), at 5 mg/ml and storage at 4° C. until use.
# (§2) The assay was performed in white 384 well plates (PerkinElmer, 6007290) using assay buffer 25 mM HEPES (Sigma-Aldrich, H0887), 100 mM NaCl (Sigma-Aldrich, S5150), 0.5% BSA (Sigma-Aldrich, A3294), 0.05% P20 (Cytiva Life Sciences, BR-1000-54), pH7.4 for all dilutions. […] Mouse IgG2a-conjugated acceptor beads described above were added at a final concentration of 20 ug/ml and incubated at room temperature for 30 minutes under subdued lighting. Streptavidin coated donor beads (PerkinElmer, 6760002) were added a final concentration of 20 ug/ml and incubated at room temperature for 60 minutes under subdued lighting. […] Data was normalised to a high control containing all assay components except Bicyclic peptide and fit to a four-parameter non-linear regression in GraphPad Prism 8.0.2 to generate an IC50 value.
# T1 sequence (P08637 17-208 limits assumed, change not shown): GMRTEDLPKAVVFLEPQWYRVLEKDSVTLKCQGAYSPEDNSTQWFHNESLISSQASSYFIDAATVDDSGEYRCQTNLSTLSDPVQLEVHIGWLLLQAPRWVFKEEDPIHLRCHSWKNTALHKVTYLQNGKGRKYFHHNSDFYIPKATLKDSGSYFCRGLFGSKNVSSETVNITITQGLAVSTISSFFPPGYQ
row,Binder,IC50 [nM]
1,"ACPPTVYCHPLDCAK (C-terminal Lys(PYA), scaffold TATA) [BCY15685]",11000
2,B1,51.1
3,B2,52.6
4,B3,27.8
5,"ACVGLEELGPCSDLCAK(Pent4ynoyl)-NH2 (linker 2-11-15 via TBMT (inferred), scaffold TBMT) [BCY13886]",1830

# Molecular target: T2, human CD16a V176 variant, biotinylated (human, UniProt P08637 17-208, N-terminally biotinylated in-house)
# T2 construct: supplier is told for the AlphaScreen assay only; also called V Variant; FcγRIIIA V variant
# Experiment: AlphaScreen competition vs mouse IgG2a
# Procedure: as §1, §2
# T2 sequence (P08637 other isoform, or with tags, fused parts or gaps mutant limits assumed): as the sequence (P08637 17-208 limits assumed, change not shown) above, with F160V counted along it
row,Binder,IC50 [nM]
1,"ACRWSVEDPCGAWCAK(Pent4ynoyl)-NH2 (linker 2-10-14 via TBMT (inferred), scaffold TBMT) [BCY13883]",2540
2,"ACPPTVYCHPLDCAK (C-terminal Lys(PYA), scaffold TATA) [BCY15685]",3480
3,B1,308
4,B2,113
5,B3,32.5
6,"ACVGLEELGPCSDLCAK(Pent4ynoyl)-NH2 (linker 2-11-15 via TBMT (inferred), scaffold TBMT) [BCY13886]",3190

# Molecular target: T3, human NKp46 on cells (CHO-K1/NKp46 cells; CD56+ NK cells of human PBMCs) (human, UniProt O76036 22-304)
# T3 construct: whole, on cells; also called NCR1; CD355
# Experiment: Kd,app, flow cytometry CHO-K1/NKp46
# Procedure: Plates were then incubated for 1 hour at room temperature in the dark. Post-incubation, the plates were centrifuged at 500 rpm for 5 minutes and supernatant discarded. Samples were then washed twice in 200 μL of 1× phosphate buffer saline (PBS; Gibco™ 10-010-023) at 500 rpm for 5 minutes. Cells were resuspended in 100 μL of PBS and transferred to a new 96-well V-bottom polypropylene plate (Greiner Bio-One 651201). Plates were centrifuged at 500 rpm for 5 minutes and supernatant discarded.
# Preparation of samples for flow cytometry: Zombie Violet™ Fixable Viability Dye (BioLegend® 423113) was prepared as a 1:1000 dilution in PBS and 100 μL of viability dye was added to each well and incubated in the dark at 4° C. for 30 minutes. To ensure NKp46 expression, untreated CHO-K1/NKp46 cells were stained with either anti-human NKp46 or an isotype control. Antibody cocktails were prepared by diluting 1.5 μL of either, PE anti-human NKp46 (BioLegend® 331908; clone 9E2) or PE isotype control IgG1, K (BioLegend® 400112), per 100 μL of stain buffer (1×PBS supplemented with 2% FBS). Cells were resuspended in master mix cocktail (100 μL) and incubated at 4° C. for 30 minutes in the dark. Subsequently, cells were washed 3 times in 100 μL of stain buffer for 5 minutes at 500 rpm and supernatant was discarded. Cells resuspended in 200 μL of stain buffer were kept at 4° C. and in the dark until read by BD FACSCelesta™ flow cytometer.
# The binding affinity of the bicyclic peptides were calculated using a four-parameter logistic regression using Prism GraphPad software.
# T3 sequence (O76036 22-304): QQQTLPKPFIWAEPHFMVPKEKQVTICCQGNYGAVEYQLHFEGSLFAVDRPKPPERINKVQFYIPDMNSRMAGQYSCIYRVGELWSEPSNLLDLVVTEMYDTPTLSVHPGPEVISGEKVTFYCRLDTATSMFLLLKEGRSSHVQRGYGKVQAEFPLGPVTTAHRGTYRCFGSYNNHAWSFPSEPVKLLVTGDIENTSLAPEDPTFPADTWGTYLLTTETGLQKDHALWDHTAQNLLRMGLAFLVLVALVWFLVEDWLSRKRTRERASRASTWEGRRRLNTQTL
row,Binder,Kd [nM]
1,B4,1.48
2,B5,1.48

# Molecular target: T1, human CD16a F176 variant, biotinylated
# Experiment: SPR
# Procedure: (§3) The SPR analysis was run at 25° C. at a flow rate of 50 μl/min with 60 seconds association and dissociation between 60 and 200 seconds. Data were corrected for DMSO excluded volume effects. All data were double-referenced for blank injections and reference surface using standard processing procedures and data processing and kinetic fitting were performed using Scrubber software, version 2.0c (BioLogic Software). Data were fitted using simple 1:1 binding model allowing for mass transport effects where appropriate.
# (§4) For analysis of peptide binding, a Biacore 8k+ instrument was used with a CM5 chip (Cytiva). All experiments were carried out at 25° C. Streptavidin was immobilized on all flow cells by standard amine coupling chemistry. The running buffer was HBS-N(Cytiva, 10 mM HEPES, 0.15 M NaCl, pH 7.4) and the flow rate was 10 μl/min. The carboxymethyl dextran surface was activated with a 1:1 ratio of 0.4 M 1-ethyl-3-(3-dimethylaminopropyl) carbodiimide hydrochloride (EDC)/0.1 M N-hydroxy succinimide (NHS) (Cytiva) for 420s. Streptavidin (ProSpec, cat no. PRO-791) was diluted to 0.2 mg/ml in 10 mM sodium acetate pH 4.5 and was injected onto the chip surface for 600 s. Residual activated groups were blocked with a 420 s injection of 1 M ethanolamine (pH 8.5). The final surface density was 2000-3000 RU. Biotinylated CD16a was diluted to 5 μg/ml in HBS-N and was captured on flow cell 2 only of the streptavidin chip at a flow rate of 10 μl/min to 1500-2500 RU. The buffer was then changed to PBS-P+(Cytiva) supplemented with 0.5-2% DMSO. […] The flow rate was 30 μl/min with 100 s association and 400 s dissociation. Data were corrected for DMSO volume exclusion effects. All data were double-referenced against blank injections and reference surface response using standard processing procedures. Data processing and kinetic fitting was performed using Biacore Insight Evaluation Software with Extended Screening and Characterization Extension (Cytiva). Data were fitted using steady state affinity 1:1 binding model to determine KD. Data were fitted using kinetic 1:1 binding model to determine kinetic constants where appropriate.
row,Binder,Kd [nM]
1,"ACRWSVEDPC[dA]AWCA-NH2 (linker 2-10-14 via TBMT (inferred), scaffold TBMT) [BCY14956]",2660
2,"ACPPTVYCHPLDCAK (C-terminal Lys(PYA), scaffold TATA) [BCY15685]",7370
3,"ACRWHXSEPCGAWCA (CiRWH[Aze]SEPCiiGAWCiii, scaffold TBMT) [BCY20382]",385
4,"ACVGLEELGPCSDLCAK(Pent4ynoyl)-NH2 (linker 2-11-15 via TBMT (inferred), scaffold TBMT) [BCY13886]",8360
5,"ACRWHXSEPCGAWCA (CiRWH[HyP]SEPCiiGAWCiii, scaffold TBMT) [BCY20383]",470

# Molecular target: T2, human CD16a V176 variant, biotinylated
# Experiment: SPR
# Procedure: as §3, §4
row,Binder,Kd [nM]
1,"ACRWSVEDPC[dA]AWCA-NH2 (linker 2-10-14 via TBMT (inferred), scaffold TBMT) [BCY14956]",2150
2,"ACRWSVEDPCGAWCAK(Pent4ynoyl)-NH2 (linker 2-10-14 via TBMT (inferred), scaffold TBMT) [BCY13883]",1520
3,"ACPPTVYCHPLDCAK (C-terminal Lys(PYA), scaffold TATA) [BCY15685]",1850
4,"ACVGLEELGPCSDLCAK(Pent4ynoyl)-NH2 (linker 2-11-15 via TBMT (inferred), scaffold TBMT) [BCY13886]",4280
5,"ACRWHXSEPCGAWCA (CiRWH[HyP]SEPCiiGAWCiii, scaffold TBMT) [BCY20383]",202

# Molecular target: T4, CD16a/FCgRIIIa (F158 variant) on HEK293 cells, Terbium-labelled (UniProt P08637 17-254, limits assumed, Terbium donor dye)
# T4 construct: whole, on cells; also called cellular CD16a
# Experiment: HTRF competition vs IgG-d2 on HEK293 cells
# Procedure: Binding to cellular CD16a/FCgRIIIa (F158 variant) was determined through competition with IgG for binding to CD16a receptors expressed on HEK293 cells.
# The experimental procedure followed the manufacturer's instructions detailed in the product information for the CD16 (FCγRIIIa) kit (Cisbio-6FR3APAG). […] Bicycle peptides were dispensed using Echo compound handler at a top concentration of 20 μM. The competing unlabeled antibodies and bicyclic peptides were added in a three-fold dilution series in Tag-lite buffer into PerkinElmer-ProxiPlate-384 Plus.
# The HEK293 cell expressing Terbium-labelled CD16a were thawed and washed in PBS and added to the wells of PerkinElmer-ProxiPlate-384 Plus containing the competitor compounds. […] The data was plotted in Graph pad prism and IC50-values were determined to indicate unlabeled antibody or bicyclic peptide competition for cellular binding to the CD16a receptor.
# T4 sequence (P08637 17-254 limits assumed, change not shown): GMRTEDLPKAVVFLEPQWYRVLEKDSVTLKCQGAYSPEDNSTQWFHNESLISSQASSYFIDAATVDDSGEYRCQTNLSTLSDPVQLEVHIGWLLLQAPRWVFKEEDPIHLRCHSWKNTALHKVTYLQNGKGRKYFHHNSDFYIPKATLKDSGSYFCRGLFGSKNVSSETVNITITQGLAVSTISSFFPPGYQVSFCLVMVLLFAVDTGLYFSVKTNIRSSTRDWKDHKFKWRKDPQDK
row,Binder,IC50 [nM]
1,"CRWH[hPhe]SEPCGAWC-NH2 (linker 1-9-13 via TBMT″, scaffold TBMT) [BCY21693]",377
2,"ACRWSVEDPCGAWCA-NH2 (linker 2-10-14 via TBMT; also: scaffold TATA, TATB or TBMT, scaffold TBMT) [BCY14950]",2040
3,"ACRWSVEDPC[dA]AWCA-NH2 (linker 2-10-14 via TBMT (inferred), scaffold TBMT) [BCY14956]",1400
4,"ACRWHXSEPCGAWCA (CiRWH[4MePhe]SEPCiiGAWCiii, scaffold TBMT) [BCY20380]",898
5,"ACPPTVYCHPLDCAK (C-terminal Lys(PYA), scaffold TATA) [BCY15685]",7560
6,"ACRWHXSEXCGAWCA (CiRWH[HPhe]SE[Aze]CiiGAWCiii, scaffold TBMT) [BCY21689]",1240
7,"ACRWHXSEPCGAWCA (CiRWH[Aze]SEPCiiGAWCiii, scaffold TBMT) [BCY20382]",749
8,"ACRWSVEXPCGAWCA (CiRWSVE[Gla]PCiiGAWCiii, scaffold TBMT) [BCY16608]",1800
9,B6,166
10,"ACRWHXSEPCGAWCA (CiRWH[HyP]SEPCiiGAWCiii, scaffold TBMT) [BCY20383]",1110
